In paper PMC2719692:

Target: T1, eEF1α (GST fusion) (rat) (UniProt P62630)
T1 sequence: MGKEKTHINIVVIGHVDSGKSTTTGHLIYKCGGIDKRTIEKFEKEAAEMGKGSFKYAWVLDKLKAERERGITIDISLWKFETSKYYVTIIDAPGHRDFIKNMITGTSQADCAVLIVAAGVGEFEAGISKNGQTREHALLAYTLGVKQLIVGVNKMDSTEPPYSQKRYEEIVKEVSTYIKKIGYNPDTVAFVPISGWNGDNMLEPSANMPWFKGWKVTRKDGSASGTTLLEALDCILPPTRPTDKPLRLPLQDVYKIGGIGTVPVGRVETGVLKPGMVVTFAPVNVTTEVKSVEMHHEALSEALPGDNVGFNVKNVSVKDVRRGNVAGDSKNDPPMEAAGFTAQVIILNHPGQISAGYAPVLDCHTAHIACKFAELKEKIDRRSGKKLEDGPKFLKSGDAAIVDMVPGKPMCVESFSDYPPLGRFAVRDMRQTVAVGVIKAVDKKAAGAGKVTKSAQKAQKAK
Assay: EMSA
Conditions: EMSA: 40 mM NaCl, 5 mM MgCl2, 30 mM Tris-HCl pH 7.6, 2 mM DTT, protease inhibitors, 22 °C 15 min, then RNase T1 (described for CHO extract); 12 fmol RNA in …

With “GGAGUGACGAACAGUGCUGCUGCCCUCAGGUGUAAAUAAUUUCCGGACCAACUCAGAGUCUUGCCGUACACCUCCACCCAGUUUACUAAACCCCGUUUUCUACCGAGCAUGUG [MT-111 (MT-1 3′UTR nt 1-111)]” the binding was “binds”.
